In publication PMC8377413:

What was measured:
[1] = biological target: OsPPR676 (recombinant, Expi293) (rice); assay: MST; Monolith NT.115; 100 nM target protein labelled with His-Tag Labeling Kit RED-tris-NTA 2nd generation, serial dilutions of unlabelled ligand; PBS with 0.05% Tween 20; 35% MST power, 60% LED power, 24°C
[2] = biological target: Osj10gBTF3 (recombinant, Expi293) (rice); assay: as above

Kd [1] [µM] | Kd [2] [µM] | Substance
15.1 | 9.8 | OsCpn60 (recombinant, Expi293) (natural protein)
– | 24.3 | OsPPR676 (recombinant, Expi293) (natural protein)
